# In ChEMBL document CHEMBL5244221, “Synthesis and structure-activity relationship studies of cruzain and rhodesain inhibitors” (Eur J Med Chem, 2018):
# Experiments:
# [1] = substrate: CCCC[C@@H](C(=O)Nc1ccc2c(C)c(CC(=O)O)c(=O)oc2c1)n1cc([C@@](C)(NCc2ccccc2)C(C)C)nn1; experiment: (§1) Binding affinity to Trypanosoma cruzi Cruzain assessed as Kcat/Km
# [2] = substrate: CCCC[C@@H](C(=O)Nc1ccc2c(C)c(CC(=O)O)c(=O)oc2c1)n1cc([C@@](C)(NCc2ccc(F)cc2)C(C)C)nn1; experiment: as §1
# [3] = substrate: CCCC[C@@H](C(=O)Nc1ccc2c(C)c(CC(=O)O)c(=O)oc2c1)n1cc([C@@](C)(NCc2ccc3ncsc3c2)C(C)C)nn1; experiment: as §1
# [4] = substrate: CCCC[C@@H](C(=O)Nc1ccc2c(C)c(CC(=O)O)c(=O)oc2c1)n1cc([C@@](C)(NCc2ccc3ncccc3c2)C(C)C)nn1; experiment: as §1
# [5] = substrate: CCCC[C@@H](C(=O)Nc1ccc2c(C)c(CC(=O)O)c(=O)oc2c1)n1cc([C@@](C)(NCc2ccc(OC)cc2)C(C)C)nn1; experiment: as §1
protein,measurement,setting,value
"Cruzipain (Trypanosoma cruzi), P25779 (protein) MSGWARALLLAAVLVVMACLVPAATASLHAEETLTSQFAEFKQKHGRVYESAAEEAFRLSVFRENLFLARLHAAANPHATFGVTPFSDLTREEFRSRYHNGAAHFAAAQERARVPVKVEVVGAPAAVDWRARGAVTAVKDQGQCGSCWAFSAIGNVECQWFLAGHPLTNLSEQMLVSCDKTDSGCSGGLMNNAFEWIVQENNGAVYTEDSYPYASGEGISPPCTTSGHTVGATITGHVELPQDEAQIAAWLAVNGPVAVAVDASSWMTYTGGVMTSCVSEQLDHGVLLVGYNDSAAVPYWIIKNSWTTQWGEEGYIRIAKGSNQCLVKEEASSAVVGGPGPTPEPTTTTTTSAPGPSPSYFVQMSCTDAACIVGCENVTLPTGQCLLTTSGVSAIVTCGAETLTEEVFLTSTHCSGPSVRSSVPLNKCNRLLRGSVEFFCGSSSSGRLADVDRQRRHQPYHSRHRRL",kcat/Km,[1],3.5
same,kcat/Km,[2],4
same,kcat/Km,[3],19
same,kcat/Km,[4],19
same,kcat/Km,[5],6.5
